Measured values reported in paper PMC6817910, “Aspartate/asparagine-β-hydroxylase crystal structures reveal an unexpected epidermal growth factor-like domain substrate disulfide pattern” (Nature Communications, 2019).
Numbering of substitutions follows the chain as printed. Bridge positions count the residues as written; N and C are the ends. Ends that are not written are not given here.

T1: N-terminally His6-tagged AspH_(315–758) (human aspartate/asparagine-β-hydroxylase, TPR and oxygenase domains) (human, UniProt Q12797 315-758)
T1 construct: human aspartate/asparagine-β-hydroxylase (AspH), residues 315-758: TPR domain (aa 330-555), hinge-loop region (aa 556-577) and 2OG oxygenase domain; pET-28a(+) construct; crystallised with Mn(II) in place of Fe(II) and N-oxalylglycine (NOG); also called AspH-TPR-Ox; His6-AspH_(315–758); not shown: His6, N-terminal, kept
T1 sequence (looked up): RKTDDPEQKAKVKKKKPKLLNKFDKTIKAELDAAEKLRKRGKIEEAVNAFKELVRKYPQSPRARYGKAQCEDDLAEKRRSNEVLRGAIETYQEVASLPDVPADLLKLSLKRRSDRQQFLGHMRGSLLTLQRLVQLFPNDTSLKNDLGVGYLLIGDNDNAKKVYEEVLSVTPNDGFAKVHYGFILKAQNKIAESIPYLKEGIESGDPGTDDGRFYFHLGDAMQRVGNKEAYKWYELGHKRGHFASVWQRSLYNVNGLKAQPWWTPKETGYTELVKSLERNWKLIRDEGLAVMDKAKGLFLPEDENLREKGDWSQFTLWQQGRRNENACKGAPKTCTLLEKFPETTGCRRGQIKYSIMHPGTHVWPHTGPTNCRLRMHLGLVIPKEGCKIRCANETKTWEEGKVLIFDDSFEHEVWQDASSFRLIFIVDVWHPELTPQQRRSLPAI

B1: hFX EGF1_(39mer), N-terminal EGF-like domain of human coagulation factor X (aa 86–124) (peptide, UniProt P00742 86-124, looked up)
peptide: DGDQCETSPCQNQGKCKDGLGEYTCTCLEGFEGKNCELF
modifications: disulfide 27-36; not fully specified (C-terminus); also: mixture of canonical (Cys1–3, 2–4) and non-canonical (Cys1–2, 3–4) isomers, crystal: Cys101–Cys110
notes: human coagulation factor X, first EGF-like domain, aa 86-124; The peptide batch is a mixture of disulfide isomers; also called NC_(39mer) peptide (the non-canonical disulfide isomer seen in the crystal); 39-residue fragment of hFX EGF1
B2: NC-4Ser_(39mer), hFX EGF1_(39mer) with cysteines 1, 2, 5 and 6 (aa 90, 95, 112 and 121) replaced by serines (peptide, UniProt P00742 86-124, looked up)
peptide: B1 peptide with C5S, C10S, C27S, C36S
modifications: disulfide 16-25
notes: human coagulation factor X, first EGF-like domain, aa 86-124, with Cys90, 95, 112 and 121 substituted for Ser; also called NC-Ser_(39mer); NC-4Ser_(39mer) peptide; source: synthetic peptide (GL Biochem (Shanghai) Ltd, single disulfide isomer)
B3: NC_(26mer), truncated 26mer hFX EGF1 substrate (aa 86–111) with the non-canonical disulfide arrangement (Cys1–2, 3–4) (peptide, UniProt P00742 86-111, looked up)
peptide: DGDQCETSPCQNQGKCKDGLGEYTCT
modifications: disulfide 5-10, 16-25
notes: human coagulation factor X, first EGF-like domain, aa 86-111, lacking the Cys5–6 disulfide-forming residues; also called NC_(26mer) peptide; source: synthetic peptide (GL Biochem (Shanghai) Ltd, orthogonal cysteine protection, single disulfide isomer)

Target: T1, N-terminally His6-tagged AspH_(315–758) …
Experiment: crystal structure; N-terminally His6-tagged AspH_(315–758) (18 mg/mL in 50 mM HEPES, pH 7.5) mixed with 1 mM MnCl2, 2 mM N-oxalylglycine and the AspH-substrate; co-crystallised by vapour diffusion at 4 °C in sitting drops
Conditions: both partners purified

Binding result, binds:
B1
B2
B3
